Patent US20250186597A1 (BRIGHT PEAK THERAPEUTICS, published 2025)

B1: IL-18 polypeptide C141 (SEQ ID NO: 71; N-terminal G, E6K, V11I, C38A, K53A, T63A, C76A, C127A) (ligand)
chain: GYFGKLKSKLSIIRNLNDQVLFIDQGNRPLFEDMTDSDARDNAPRTIFIISMYADSQPRGMAVAISVKCEKISTLSAENKIISFKEMNPPDNIKDTKSDIIFFQRSVPGHDNKMQFESSSYEGYFLAAEKERDLFKLILKKEDELGDRSIMFTVQNED
B2: IL-18 polypeptide C192 (SEQ ID NO: 70; N-terminal G, E6K, V11I, C38A, M51G, K53A, T63A, C76A, C127A) (ligand)
chain: GYFGKLKSKLSIIRNLNDQVLFIDQGNRPLFEDMTDSDARDNAPRTIFIISGYADSQPRGMAVAISVKCEKISTLSAENKIISFKEMNPPDNIKDTKSDIIFFQRSVPGHDNKMQFESSSYEGYFLAAEKERDLFKLILKKEDELGDRSIMFTVQNED
B3: IL-18 polypeptide C178 (E6K, V11I, C38A, K53A, T63A, C76A, Q103R, C127A) (ligand)
chain: YFGKLKSKLSIIRNLNDQVLFIDQGNRPLFEDMTDSDARDNAPRTIFIISMYADSQPRGMAVAISVKCEKISTLSAENKIISFKEMNPPDNIKDTKSDIIFFRRSVPGHDNKMQFESSSYEGYFLAAEKERDLFKLILKKEDELGDRSIMFTVQNED
B4: IL-18 polypeptide C184 (E6R, V11I, C38A, K53A, T63A, C76A, C127A) (ligand)
chain: YFGKLRSKLSIIRNLNDQVLFIDQGNRPLFEDMTDSDARDNAPRTIFIISMYADSQPRGMAVAISVKCEKISTLSAENKIISFKEMNPPDNIKDTKSDIIFFQRSVPGHDNKMQFESSSYEGYFLAAEKERDLFKLILKKEDELGDRSIMFTVQNED
B5: IL-18 polypeptide C181 (E6K, V11I, C38A, K53A, T63A, C76A, C127A, V153E) (ligand)
chain: YFGKLKSKLSIIRNLNDQVLFIDQGNRPLFEDMTDSDARDNAPRTIFIISMYADSQPRGMAVAISVKCEKISTLSAENKIISFKEMNPPDNIKDTKSDIIFFQRSVPGHDNKMQFESSSYEGYFLAAEKERDLFKLILKKEDELGDRSIMFTEQNED
B6: IL-18 polypeptide C179 (E6K, K8E, V11I, C38A, K53A, T63A, C76A, Q103R, C127A) (ligand)
chain: YFGKLKSELSIIRNLNDQVLFIDQGNRPLFEDMTDSDARDNAPRTIFIISMYADSQPRGMAVAISVKCEKISTLSAENKIISFKEMNPPDNIKDTKSDIIFFRRSVPGHDNKMQFESSSYEGYFLAAEKERDLFKLILKKEDELGDRSIMFTVQNED
B7: IL-18 polypeptide C183 (SEQ ID NO: 69; E6K, V11I, C38A, M51G, K53A, T63A, C76A, C127A) (ligand)
chain: YFGKLKSKLSIIRNLNDQVLFIDQGNRPLFEDMTDSDARDNAPRTIFIISGYADSQPRGMAVAISVKCEKISTLSAENKIISFKEMNPPDNIKDTKSDIIFFQRSVPGHDNKMQFESSSYEGYFLAAEKERDLFKLILKKEDELGDRSIMFTVQNED
B8: IL-18 polypeptide C142 (Y1M, E6K, V11I, C38A, K53A, T63A, C76A, C127A) (ligand)
chain: MFGKLKSKLSIIRNLNDQVLFIDQGNRPLFEDMTDSDARDNAPRTIFIISMYADSQPRGMAVAISVKCEKISTLSAENKIISFKEMNPPDNIKDTKSDIIFFQRSVPGHDNKMQFESSSYEGYFLAAEKERDLFKLILKKEDELGDRSIMFTVQNED
B9: IL-18 polypeptide C182 (E6K, V11I, C38A, K53A, T63A, C76A, C127A, V153Y) (ligand)
chain: YFGKLKSKLSIIRNLNDQVLFIDQGNRPLFEDMTDSDARDNAPRTIFIISMYADSQPRGMAVAISVKCEKISTLSAENKIISFKEMNPPDNIKDTKSDIIFFQRSVPGHDNKMQFESSSYEGYFLAAEKERDLFKLILKKEDELGDRSIMFTYQNED
B10: IL-18 polypeptide C140 (SEQ ID NO: 72; N-terminal 4xG, E6K, V11I, C38A, K53A, T63A, C76A, C127A) (ligand)
chain: GGGGYFGKLKSKLSIIRNLNDQVLFIDQGNRPLFEDMTDSDARDNAPRTIFIISMYADSQPRGMAVAISVKCEKISTLSAENKIISFKEMNPPDNIKDTKSDIIFFQRSVPGHDNKMQFESSSYEGYFLAAEKERDLFKLILKKEDELGDRSIMFTVQNED

Target: T1, IL-18R on HEK-Blue IL18R reporter cells (InvivoGen, #hkb-hmi118) (UniProt Q13478 19-541; O95256 20-599, limits assumed)
T1 sequence (looked up) 1: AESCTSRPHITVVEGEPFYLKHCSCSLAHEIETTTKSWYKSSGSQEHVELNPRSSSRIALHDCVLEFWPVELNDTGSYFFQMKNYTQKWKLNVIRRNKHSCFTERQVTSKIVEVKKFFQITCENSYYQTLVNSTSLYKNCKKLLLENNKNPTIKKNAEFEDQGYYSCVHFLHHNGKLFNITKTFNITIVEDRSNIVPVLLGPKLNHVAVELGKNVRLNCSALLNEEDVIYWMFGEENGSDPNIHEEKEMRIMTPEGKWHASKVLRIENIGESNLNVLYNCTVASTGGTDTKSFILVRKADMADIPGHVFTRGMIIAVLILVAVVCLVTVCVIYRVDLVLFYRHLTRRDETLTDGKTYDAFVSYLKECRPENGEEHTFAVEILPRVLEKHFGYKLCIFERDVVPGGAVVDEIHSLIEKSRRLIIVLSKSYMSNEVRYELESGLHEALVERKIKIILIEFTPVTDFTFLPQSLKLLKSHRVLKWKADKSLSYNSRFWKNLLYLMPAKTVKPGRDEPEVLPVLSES
T1 sequence (looked up) 2: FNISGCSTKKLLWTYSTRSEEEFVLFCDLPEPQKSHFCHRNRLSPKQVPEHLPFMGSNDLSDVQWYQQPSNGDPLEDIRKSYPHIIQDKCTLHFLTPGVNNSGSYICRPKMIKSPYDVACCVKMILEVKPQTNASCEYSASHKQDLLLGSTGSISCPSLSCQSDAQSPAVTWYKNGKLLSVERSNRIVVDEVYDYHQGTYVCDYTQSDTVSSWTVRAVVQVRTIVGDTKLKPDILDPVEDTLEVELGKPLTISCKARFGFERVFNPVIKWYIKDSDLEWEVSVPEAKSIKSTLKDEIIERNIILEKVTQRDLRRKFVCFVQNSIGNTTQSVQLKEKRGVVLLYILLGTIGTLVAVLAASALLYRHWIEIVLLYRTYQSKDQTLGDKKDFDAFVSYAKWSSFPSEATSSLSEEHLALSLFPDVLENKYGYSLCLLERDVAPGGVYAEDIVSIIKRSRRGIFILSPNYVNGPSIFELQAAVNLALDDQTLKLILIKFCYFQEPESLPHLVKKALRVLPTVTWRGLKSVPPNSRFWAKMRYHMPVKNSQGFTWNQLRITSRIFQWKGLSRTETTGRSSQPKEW
Assay: cell-based or functional assay

| EC50, HEK-Blue IL18R reporter assay | Binder |
| --- | --- |
| 1.68 pM | B1 |
| 14 pM | B2 |
| 0.26 pM | B3 |
| 0.04 pM | B4 |
| 0.1 pM | B5 |
| 0.4 pM | B6 |
| 0.1 pM | B7 |
| 0.02 pM | B8 |
| 0.08 pM | B9 |
| 2.5 pM | B10 |
